The supplement of paper PMC11246515
± gives the standard deviation of the averaged measurements.

Test: total protein half-life in vivo (active degradation + dilution); higher = more stable protein
[1] = E. coli NCM3722 delta-clpP delta-lon delta-hslV, growth: N-lim chemostat, doubling time 6 h
[2] = E. coli NCM3722 delta-lon, growth: N-lim chemostat, doubling time 6 h
[3] = E. coli NCM3722 delta-smpB, growth: N-lim chemostat, doubling time 6 h
[4] = wild type E. coli NCM3722, growth: N-lim chemostat, doubling time 6 h
[5] = wild type E. coli NCM3722, growth: N-lim chemostat, doubling time 12 h
[6] = E. coli NCM3722 delta-clpP, growth: N-lim chemostat, doubling time 6 h
[7] = E. coli NCM3722 delta-hslV, growth: N-lim chemostat, doubling time 6 h
[8] = wild type E. coli NCM3722, growth: C-lim chemostat, doubling time 3 h
[9] = wild type E. coli NCM3722, growth: C-lim chemostat, doubling time 6 h
[10] = wild type E. coli NCM3722, growth: P-lim chemostat, doubling time 6 h
[11] = wild type E. coli NCM3722, growth: P-lim chemostat, doubling time 12 h
[12] = wild type E. coli NCM3722, growth: C-lim chemostat, doubling time 12 h

Sequence | total protein half-life in vivo [1] | total protein half-life in vivo [2] | total protein half-life in vivo [3] | total protein half-life in vivo [4] | total protein half-life in vivo [5] | total protein half-life in vivo [6] | total protein half-life in vivo [7] | total protein half-life in vivo [8] | total protein half-life in vivo [9] | total protein half-life in vivo [10] | total protein half-life in vivo [11] | total protein half-life in vivo [12]
MRNTLIPILVAICLFITGVAILNIQLWYSAKAEYLAGARYAANNINHILEEASQATQTAVNIAGKECNLEEQYQLGTEAALKPHLRTIIILKQGIVWCTSLPGNRVLLSRIPVFPDSNLLLAPAIDTVNRLPILLYQNQFADTRILVTISDQHIRGALNVPLKGVRYVLRVADDIIGPTGDVMTLNGHYPYTEKVHSTKYHFTIIFNPPPLFSFYRLIDKGFGILIFILLIACAAAFLLDRYFNKSATPEEILRRAINNGEIVPFYQPVVNGREGTLRGVEVLARWKQPHGGYISPAAFIPLAEKSGLIVPLTQSLMNQVARQMNAIASKLPEGFHIGINFSASHIISPTFVDECLNFRDSFTRRDLNLVLEVTEREPLNVDESLVQRLNILHENGFVIALDDFGTGYSGLSYLHDLHIDYIKIDHSFVGRVNADPESTRILDCVLDLARKLSISIVAEGVETKEQLDYLNQNYITFQQGYYFYKPVTYIDLVKIILSKPKVKVVVE | 3.79 h | 4.37 h | 6.19 ± 0.68 h | 4.59 h | 11.9 ± 0.31 h |  |  |  |  |  |  | 
MQKFDTRTFQGLILTLQDYWARQGCTIVQPLDMEVGAGTSHPMTCLRELGPEPMAAAYVQPSRRPTDGRYGENPNRLQHYYQFQVVIKPSPDNIQELYLGSLKELGMDPTIHDIRFVEDNWENPTLGAWGLGWEVWLNGMEVTQFTYFQQVGGLECKPVTGEITYGLERLAMYIQGVDSVYDLVWSDGPLGKTTYGDVFHQNEVEQSTYNFEYADVDFLFTCFEQYEKEAQQLLALENPLPLPAYERILKAAHSFNLLDARKAISVTERQRYILRIRTLTKAVAEAYYASREALGFPMCNKDK | 6.13 ± 0.15 h | 6.54 ± 0.34 h | 4.88 ± 0.31 h | 6.04 ± 0.12 h |  | 6.28 ± 1.2 h | 6.72 ± 0.52 h | 3.4 ± 0.69 h | 6.44 ± 0.24 h | 6.78 ± 1.4 h | 13.3 ± 0.41 h | 
MRVLVVEDNALLRHHLKVQIQDAGHQVDDAEDAKEADYYLNEHIPDIAIVDLGLPDEDGLSLIRRWRSNDVSLPILVLTARESWQDKVEVLSAGADDYVTKPFHIEEVMARMQALMRRNSGLASQVISLPPFQVDLSRRELSINDEVIKLTAFEYTIMETLIRNNGKVVSKDSLMLQLYPDAELRESHTIDVLMGRLRKKIQAQYPQEVITTVRGQGYLFELR | 4.69 ± 0.2 h | 4.7 ± 0.21 h | 4.19 ± 0.29 h | 4.33 ± 0.29 h | 7.55 ± 0.24 h | 4.2 ± 0.46 h | 4.056 ± 0.01 h | 2.85 ± 0.13 h | 5.04 ± 0.12 h | 5.134 ± 0.051 h | 8.98 ± 0.26 h | 8.69 ± 1 h
MRLEFSIYRYNPDVDDAPRMQDYTLEADEGRDMMLLDALIQLKEKDPSLSFRRSCREGVCGSDGLNMNGKNGLACITPISALNQPGKKIVIRPLPGLPVIRDLVVDMGQFYAQYEKIKPYLLNNGQNPPAREHLQMPEQREKLDGLYECILCACCSTSCPSFWWNPDKFIGPAGLLAAYRFLIDSRDTETDSRLDGLSDAFSVFRCHSIMNCVSVCPKGLNPTRAIGHIKSMLLQRNA | 6.38 ± 1.4 h | 5.16 ± 1.2 h | 5.06 ± 0.28 h | 5.22 ± 0.7 h | 10.7 ± 0.97 h | 5.1 ± 0.12 h | 5.6 ± 0.19 h | 3.17 ± 0.81 h | 6.28 ± 0.13 h | 5.138 ± 0.038 h | 10.5 ± 0.14 h | 11.9 ± 0.33 h
MNIPQLTALCLRYHGVLLDASEEVVHVAVVDAPSHELLDALHFATTKRIEITCWTRQQMEGHASRTQQTLPVAVQEKHQPKAELLTRTLQSALEQRASDIHIEPADNAYRIRLRIDGVLHPLPDVSPDAGVALTARLKVLGNLDIAEHRLPQDGQFTVELAGNAVSFRIATLPCRGGEKVVLRLLQQVGQALDVNTLGMQPLQLADFAHALQQPQGLVLVTGPTGSGKTVTLYSALQKLNTADINICSVEDPVEIPIAGLNQTQIHPRAGLTFQGVLRALLRQDPDVIMIGEIRDGETAEIAIKAAQTGHLVLSTLHTNSTCETLVRLQQMGVARWMLSSALTLVIAQRLVRKLCPHCRRQQGEPIHIPDNVWPSPLPHWQAPGCVHCYHGFYGRTALFEVLPITPVIRQLISANTDVESLETHARQAGMRTLFENGCLAVEQGLTTFEELIRVLGMPHGE | 3.89 h |  |  |  |  |  |  |  |  |  |  | 
MKITLSKRIGLLAILLPCALALSTTVHAETNKLVIESGDSAQSRQHAAMEKEQWNDTRNLRQKVNKRTEKEWDKADAAFDNRDKCEQSANINAYWEPNTLRCLDRRTGRVITP | 6.01 ± 0.36 h | 5.55 ± 1.8 h | 4.06 ± 0.71 h | 4.93 ± 0.28 h | 11 ± 1.8 h |  | 4.407 ± 0.012 h |  | 5.07 ± 0.96 h | 5.78 ± 0.18 h | 12.4 ± 0.79 h | 7.11 ± 3.5 h
MSIKTIKYFSTIIVAVVAVLAGWWLWNYYMQSPWTRDGKIRAEQVSITPQVSGRIVELNIKDNQLVNAGDLLLTIDKTPFQIAELNAQAQLAKAQSDLAKANNEANRRRHLSQNFISAEELDTANLNVKAMQASVDAAQATLKQAQWQLAQTEIRAPVSGWVTNLTTRIGDYADTGKPLFALVDSHSFYVIGYFEETKLRHIREGAPAQITLYSDNKTLQGHVSSIGRAIYDQSVESDSSLIPDVKPNVPWVRLAQRVPVRFALDKVPGDVTLVSGTTCSIAVGQ | 6.427 ± 0.064 h | 6.46 ± 0.5 h | 5.645 ± 0.01 h | 6.093 ± 0.06 h | 14.4 ± 1.4 h | 4.89 ± 0.55 h | 6.39 ± 0.71 h | 3.43 ± 0.24 h | 6.64 ± 0.59 h | 6.58 ± 0.25 h | 12.5 ± 0.34 h | 11.2 ± 1.9 h
